US6703364B2, “Thrombin generation inhibitors” (Cleveland State University, priority 2001, dated 2004)
Entries after “also recorded” stand apart in the source; their conditions may differ. Residues, ends and D or L forms follow the SMILES beside them. No end group written: not given here.

Experiments:
[1] = target: T1, prothrombinase (Homo sapiens, UniProt P00742); experiment: fluorescent prothrombinase assay (DAPA; conversion of prothrombin to α-thrombin); assay type: biochemical; conditions: for IC50: fluorescent assay, DAPA fluorescence, read-out: IC50 for inhibition of prothrombinase activity
T1 construct: purchased Haematologic Technologies, Inc
Excerpt: The assay used to obtain the data shown in FIG. 4 is a fluorescent assay that is described in Example 3 of this document. Briefly, the fluorescent assay, in contrast to the visual assay, measures only one reaction of the many necessary for formation of a blood clot. The fluorescent assay measures conversion of prothrombin to a-thrombin as catalyzed by prothrombinase. A fluorescent assay reaction contains prothrombin, factor Xa, factor Va and a preparation of phospholipid vesicles, which facilitate assembly of the aforementioned components into a functioning prothrombinase enzyme.
Each fluorescent assay also contains a fluorescent compound called dansylarginine-N-(3-ethyl-1,5-pentanediyl)amide (or DAPA for short). DAPA specifically binds to α-thrombin, the product of the prothrombinase reaction. Binding of DAPA by α-thrombin increases the fluorescence intensity of DAPA. In the case where no peptide inhibitor of prothrombinase is present in the reaction, high levels of α-thrombin are produced in the reaction, and DAPA fluorescence is high. When a peptide inhibitor of prothrombinase is present, little α-thrombin is produced in the reaction, and DAPA fluorescence is low. Therefore, by measuring DAPA fluorescence, the inhibitory ability of each peptide is determined.
The identity of reactions containing each peptide, as well as the reactions containing no peptide (labeled “Xa/Va”) or no peptide and no factor Va (labeled “Xa”) is shown on the x-axis of FIG. 4.
Activities of prothrombinase, as measured by DAPA fluorescence, are shown on the y-axis of FIG. 4. […] DAPA fluorescence in the absence of both peptide and factor Va (the bar labeled “APXa” in FIG. 4) is 9% of the APXa/Va activity, and is background fluorescence.
The fluorescence assay specifically measured the conversion of prothrombin to α-thrombin, one essential reaction of the many required for blood clotting (see FIG. 1). […]
The fluorescent properties of DAPA were contributed by the dansyl moiety. When bound to α-thrombin, the fluorescence intensity and lifetime of the dansyl moiety were increased three-fold. Therefore, in this assay, when prothrombinase activity was uninhibited, α-thrombin was produced (see FIG. 1) and DAPA fluorescence was high. When prothrombinase activity was inhibited, as in the presence of peptide prothrombinase inhibitors, α-thrombin was not produced and DAPA fluorescence was low.
In a typical assay, the final concentrations of reagents were as follows: prothrombin, 1.4 μM; factor Xa, 10 nM; factor Va, 1 nM; phospholipid vesicles, 20 μM; DAPA, 3 μM; peptide, 100 μM. […] After centrifugation to isolate the vesicles, the concentration of the vesicles was determined by phosphorus assay (Gomori, 1942, J Lab Clin Med, 27:955-60). […]

[2] = target: T1, prothrombinase; experiment: visual blood clotting assay (factor V-depleted plasma, thromboplastin, factor Va); assay type: biochemical; conditions: increasing peptide concentrations, as high as 250 μM
Excerpt: FIG. 3 is a graph showing inhibition of prothrombinase activity by the 42 amino acid peptide NR42, encompassing amino acids 307-348 of the human factor Va heavy chain (SEQ ID NO. 2). The assay used to obtain the data shown in FIG. 3 is a visual blood clotting assay that is described in detail in Example 2 of this document.
Briefly, in the visual blood clotting assay, reactions are set up that contain all components of the blood necessary to form a blood clot and the time required for formation of a visual blood clot is recorded. To test inhibitory activity of the NR42 peptide, different concentrations of NR42 are added to a series of such reactions. […] The time required for an observable blood clot to form in the absence of NR42 peptide (0 μM peptide on the x-axis) is designated as 100% prothrombinase activity, as shown on the y-axis of FIG. 3. Inhibition of blood clotting by […] results in longer clotting times. Longer clotting times are shown on the y-axis of the graph as decreased prothrombinase activity. […]
Factor Va was purchased or, alternatively was produced by treatment of 50 nM of purified factor V (Haematologic Technologies, Inc.) with 1 nM α-thrombin for 10 min followed by the addition of 2 nM hirudin. […] This time was arbitrarily determined to be 100% activity. […]

[3] = target: prothrombinase (factor Xa plus factor Va) (human) (UniProt P00742)
[4] = target: factor Xa (Homo sapiens (Human)) (UniProt P00742)
[5] = series of peptide concentrations

T1 sequence (P00742 41-179 limits assumed): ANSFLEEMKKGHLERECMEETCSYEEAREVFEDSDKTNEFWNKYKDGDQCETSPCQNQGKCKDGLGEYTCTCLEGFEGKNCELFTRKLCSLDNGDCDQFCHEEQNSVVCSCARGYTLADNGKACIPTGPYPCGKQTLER
T1 sequence (P00742 235-488 limits assumed): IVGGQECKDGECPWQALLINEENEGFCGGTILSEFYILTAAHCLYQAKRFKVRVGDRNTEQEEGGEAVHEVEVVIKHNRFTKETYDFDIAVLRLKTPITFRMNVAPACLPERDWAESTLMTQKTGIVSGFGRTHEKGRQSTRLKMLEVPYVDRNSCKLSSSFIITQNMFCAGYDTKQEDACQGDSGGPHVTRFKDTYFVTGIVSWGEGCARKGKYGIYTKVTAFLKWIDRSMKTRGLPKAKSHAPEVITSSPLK

CC[C@H](C)[C@H](NC(=O)[C@H](Cc1ccccc1)NC(=O)[C@H](Cc1ccc(O)cc1)NC(=O)[C@H](CCC(=O)O)NC(=O)[C@@H](N)Cc1c[nH]c2ccccc12)C(=O)N[C@@H](C)C(=O)N[C@@H](C)C(=O)N[C@@H](CCC(=O)O)C(=O)N[C@@H](CCC(=O)O)C(=O)N[C@H](C(=O)O)C(C)C [AP4, Trp Glu Tyr Phe Ile Ala Ala Glu Glu Val] (H-WEYFIAAEEV-OH)
IC50 [1, 5]: ~5 µM

CC[C@H](C)[C@H](N)C(=O)N[C@@H](Cc1c[nH]c2ccccc12)C(=O)N[C@@H](CC(=O)O)C(=O)N[C@@H](Cc1ccc(O)cc1)C(=O)N[C@@H](C)C(=O)N1CCC[C@H]1C(=O)N[C@H](C(=O)N[C@H](C(=O)N1CCC[C@H]1C(=O)N[C@@H](C)C(=O)O)[C@@H](C)CC)C(C)C [AP6, Ile Trp Asp Tyr Ala Pro Val Ile Pro Ala] (H-IWDYAPVIPA-OH)
IC50 [1, 5]: ~30 µM

DR13: control peptide encompassing amino acids 697 to 709 of the factor Va heavy chain (DADSDYQDELALI)
effect on blood clotting time and prothrombinase activity (in words) [2]: do not significantly affect blood clotting time and prothrombinase activity | effect on blood clotting time and prothrombinase activity (in words) ([2]; listed as D13R): did not inhibit prothrombinase activity

EYFAE (peptide)
IC50, inhibition of prothrombinase, fluorescent assay (DAPA) [3]: 10 to 15 µM

NMDKKYRSQH [AP8, 10 amino acid peptide adjacent to and overlapping AP9]
prothrombinase activity relative to the no peptide reaction ([1]; 100 μM peptide, no peptide reaction (Xa/Va) = 100%, remaining activity): approximately 80%

P15H: 15 amino acid peptide encompassing amino acids 337-351 of human factor Va; used as negative control (PIIPANMDKKYRSLH) [Peptide P15H]
inhibition of prothrombinase activity (in words) ([1]; series of peptide concentrations, up to approximately 500 μM): did not inhibit prothrombinase; also recorded: does not inhibit prothrombinase activity

factor Va (from UniProt P12259)
prothrombinase activity by DAPA fluorescence, factor Xa with and without factor Va (% of the Xa/Va activity) [4]: 9
